For the assay, the target named is pyroglutamate beta-amyloid peptide (pGlu3-Aβ). The experiment in a line: SiMoA.

B1: Lecanemab (antibody, V domains shown)
VH: EVQLVESGGGLVQPGGSLRLSCSASGFTFSSFGMHWVRQAPGKGLEWVAYISSGSSTIYYGDTVKGRFTISRDNAKNSLFLQMSSLRAEDTAVYYCAREGGYYYGRSYYTMDYWGQGTTVTVSS
VL: DVVMTQSPLSLPVTPGAPASISCRSSQSIVHSNGNTYLEWYLQKPGQSPKLLIYKVSNRFSGVPDRFSGSGSGTDFTLRISRVEAEDVGIYYCFQGSHVPPTFGPGTKLEIK
Molecule B1 came in with a limit of detection (LoD) of 4 pM.

Values taken from article doi:10.1101/2024.10.11.617910.
